Reference: the supplement of paper PMC10201428
± gives the standard deviation of the averaged measurements.

Key:
[1] = tested on: VchCAST RNA-guided transposition machinery (E. coli BL21(DE3) host, lacZ target); assay: relative integration efficiency (T-LR orientation) vs wild-type transposon end (log2 (normalized fold change)); transposon end mutated: right end (5 bp flank + 75 bp right end); higher = more efficient transposition
Summary of the method: (§1)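 Barcoded pools of 1549 left-end or 1849 right-end transposon variants were cloned into a pUC57 mini-transposon donor. Each pool was co-transformed with a T7-driven effector plasmid (CRISPR array, tniQ-cas8-cas7-cas6, tnsA-tnsB-tnsC) into E. coli BL21(DE3) and plated with 0.1 mM IPTG at 37°C for 18 h. Input plasmids and genomic integration junctions were PCR-amplified and Illumina-sequenced, with two biological output replicates and four wild-type barcodes as reference. Relative integration efficiency is output/input barcode abundance fold change, normalised to wild-type barcodes and log-transformed.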

[2] = tested on: VchCAST RNA-guided transposition machinery (E. coli BL21(DE3) host, lacZ target); assay: relative integration efficiency (T-RL orientation) vs wild-type transposon end (log2 (normalized fold change)); transposon end mutated: right end (5 bp flank + 75 bp right end); higher = more efficient transposition
Summary of the method: as §1

Sequence | relative integration efficiency (log2) [1] | relative integration efficiency (log2) [2]
ACATTTGTTGATACAACCATAAAATGATAATTACAACCATAAAGTGATATTTATCACAACCATATATTGATATCTCCTCTGATCATAGTCAGACCAACATTGCTACGACCCGTATTCGCACCGACAC | -0.276 ± 0.022 | -0.331 ± 0.17
ACATTTGTTCATACAACCCTAAAATGATAATTACACCCATAAATTCATCATTATCACCCCCAATTTAACTATAACGCTCTGATCATAGTCAGACCAACATTGCTACGACCCGTATTCGCACCGACAC | -3.65 ± 0.85 | -5.29 ± 0.22
ACATTTGTTGATACAACCATAAAATGATAATTACACCCATAAATTGATATTGCTCACACCCATAAATTGATAATTACTCTGATCATAGTCAGACCAACATTGCTACGACCCGTATTCGCACCGACAC | 0.634 ± 0.033 | -0.432 ± 0.2
ACATTTGTTGATACAACCATAAAATGATAATTACTCTGATCATAGTCAGACCAACATTGCTACGACCCGTATTCGCACCGACACAACGACTATCACCCATAAATTGATAATTATCAGTGGGTATTTA | 2.166 ± 0.019 | -1.16 ± 0.15
ACATTTGTTGATACAACCATAAAATGATAATTACACCCATAAATTGATAATTATCACACCCATAAATTGATATTGCCTCTGATCATATTTAATAATTAATTTATATATTTAAGTCAGGCACCGACAC | 0.961 ± 0.58 | 0.707 ± 0.19
ACATTTGTTGATACAACCATAAAATGATAATTACACCCATAAATTGATAATTATCACACCCATAAATTGATCTCTGATCATAGTCAGACCAACATTGCTACGACCCGTATTCGCACCGACACTGACT | 0.731 ± 0.26 | -0.209 ± 0.021
ACATTTGTTGATACAACCATAAAATGATAATTACACCCATAAATTGATAATTATCACACCCATAAATTGATATTGCCTCTGATCATAGTCAGCTGAAGCGAGACACCGACCAACATTGCACCGACAC | -0.204 ± 0.33 | -0.174 ± 0.19
ACATTTGTTGATACAACCATAAAATGATAATTACTCTGATCATAGTCAGACCAACATTGCTACGACCCGTATTCGCACCGACACAACGACTATATTTACACCCATAAATTGATAATTATCAGTGGGT | 1.81 ± 0.28 | -1.358 ± 0.0083
ACATTTGTTGATACAACCATATATTGATATCTCCAACCATAAGTTGATATTTTTCACACCCATAAATTGATAATTACTCTGATCATAGTCAGACCAACATTGCTACGACCCGTATTCGCACCGACAC | 0.109 ± 0.44 | -0.491 ± 0.17
ACATTTGTTGATACAACCATAAAATCTATATTACACCCATAAATTGATAATTATCACACCCATAAATTGATATTGCCTCTGATCATAGTCAGACCAACATTGCTACGACCCGTATTCGCACCGACAC | -1.85 ± 0.057 | -1.55 ± 0.21
ACATTTGTTGATACAACCATAAGTTGATATTTTCACCCATAAATTGATAATTATCACAACCATAAAATGATAATTACTCTGATCATAGTCAGACCAACATTGCTACGACCCGTATTCGCACCGACAC | -0.584 ± 0.047 | -0.0424 ± 0.077
ACATTTGTTGATCCAACCATAAAATGATAATTACACCCATAAATGGATCATTATCACACCCAATTTAACTATAACGCTCTGATCATAGTCAGACCAACATTGCTACGACCCGTATTCGCACCGACAC | 1.13 ± 0.26 | -1.74 ± 0.32
ACATTTGTTGATACAACCATAAAGTGATATTTACACCCATAAATTGATAATTATCACAACCATAAAGTGATATTTACTCTGATCATAGTCAGACCAACATTGCTACGACCCGTATTCGCACCGACAC | -0.0182 ± 0.15 | -0.155 ± 0.041
ACATTTGTTGATACAACCATAAAATGATAATTACACCCATAAATTGATAATTATCACACCCATAAATTGATATTGCCTCTCGCGAGAGGCCGGCAGCCGTCTGGCGTCGGGTGGCGGGCACCGACAC | 0.646 ± 0.53 | 0.713 ± 0.16
ACATTTGTTCATACAACCATAAAATGATAATTACACCCATAAATGGATCATTATCACACCCAATTTAACTATAACGCTCTGATCATAGTCAGACCAACATTGCTACGACCCGTATTCGCACCGACAC | -0.503 ± 0.054 | -1.79 ± 0.18
ACATTTGTTGATACAACCATATATTGATATCTCCAACCATAAAGTGATATTTATCACAACCATAAAGTGATATTTACTCTGATCATAGTCAGACCAACATTGCTACGACCCGTATTCGCACCGACAC | -0.451 ± 0.11 | -0.409 ± 0.1
ACATTTCTGGATACAACCATAAAATGATAATTACACCCATAAATGGATAATTATCACACCCAATTTAACTATAACGCTCTGATCATAGTCAGACCAACATTGCTACGACCCGTATTCGCACCGACAC | -0.444 ± 0.28 | -2.35 ± 0.26
ACATTTGTTGATACAACCATAAAATGATAATTACACCCATAAATTGATAATTATCACACAACGCCCGGTCGCGGTAAGAGGATCATAGTCAGACCAACATTGCTACGACCCGTATTCGCACCGACAC | 2.32 ± 0.24 | -0.696 ± 0.091
ACATTTGTTGATACAACCATACAATGATAATTACACCCATACATTGATAATTATCACACCCATACATTGATATTGCCTCTGATCATAGTCAGACCAACATTGCTACGACCCGTATTCGCACCGACAC | -1.3 ± 0.016 | -2.95 ± 0.34
ACATTTGTTGATACAACCATAAAATGATAATTACACCCATAAATTGATAATGCTCACACCCATAAATTGATATTGCCTCTGATCATAGTCAGACCAACATTGCTACGACCCGTATTCGCACCGACAC | 0.654 ± 0.025 | -0.488 ± 0.1
ACATTGGTGGATACAACCATAAAATGATAATTACACCCATAAATGGATAATTATCACACCCAATTTAACTATAACGCTCTGATCATAGTCAGACCAACATTGCTACGACCCGTATTCGCACCGACAC | -5.04 ± 0.46 | -7.53 ± 0.13
ACATTTGTCGATACAACCATAAAATGATAATTACACCCATAAATTCATCATTATCACCCCCAATTTAACTATAACGCTCTGATCATAGTCAGACCAACATTGCTACGACCCGTATTCGCACCGACAC | 1.54 ± 0.23 | -1.99 ± 0.23
ACATTTGTTGATACAACCATAAAATGATAATTACACCCATAAATTGATAATTATCACACCCATAAATTGATATTGCCTCTGATAACTTCGTATAAAGTATCCTATACGAAGTTATTCGCACCGACAC | 0.85 ± 0.066 | -0.255 ± 0.26
ACATTTGTTGATACACCCATAAATTGATATTGCCAACCATAAAATGATAATTATCACAACCATAAAGTGATATTTACTCTGATCATAGTCAGACCAACATTGCTACGACCCGTATTCGCACCGACAC | -0.327 ± 0.1 | -0.59 ± 0.12
ACATTTGTTGATACAACCATAAAATGATAATTACACCCATAAATTGATAATTATCACACCACGCAATTGATATTGCCTCTGATCATAGTCAGACCAACATTGCTACGACCCGTATTCGCACCGACAC | 2.1 ± 0.088 | -0.677 ± 0.11
ACATTTGTTGATACAACCCTAAAATGATAATTACACCCATAAATTCATCATTATCACCCCCAATTTAACTATAACGCTCTGATCATAGTCAGACCAACATTGCTACGACCCGTATTCGCACCGACAC | -1.49 ± 0.085 | -4.72 ± 0.23
ACATTTGTTGATACAACCATAAGTTGATATTTTCAACCATAAAATGATAATTATCACACCCATAAATTGATAATTACTCTGATCATAGTCAGACCAACATTGCTACGACCCGTATTCGCACCGACAC | -0.376 ± 0.15 | -0.162 ± 0.0022
